Molecular target: T1, ranb3_human RANBP3 (UniProt Q9H6Z4)
T1 sequence: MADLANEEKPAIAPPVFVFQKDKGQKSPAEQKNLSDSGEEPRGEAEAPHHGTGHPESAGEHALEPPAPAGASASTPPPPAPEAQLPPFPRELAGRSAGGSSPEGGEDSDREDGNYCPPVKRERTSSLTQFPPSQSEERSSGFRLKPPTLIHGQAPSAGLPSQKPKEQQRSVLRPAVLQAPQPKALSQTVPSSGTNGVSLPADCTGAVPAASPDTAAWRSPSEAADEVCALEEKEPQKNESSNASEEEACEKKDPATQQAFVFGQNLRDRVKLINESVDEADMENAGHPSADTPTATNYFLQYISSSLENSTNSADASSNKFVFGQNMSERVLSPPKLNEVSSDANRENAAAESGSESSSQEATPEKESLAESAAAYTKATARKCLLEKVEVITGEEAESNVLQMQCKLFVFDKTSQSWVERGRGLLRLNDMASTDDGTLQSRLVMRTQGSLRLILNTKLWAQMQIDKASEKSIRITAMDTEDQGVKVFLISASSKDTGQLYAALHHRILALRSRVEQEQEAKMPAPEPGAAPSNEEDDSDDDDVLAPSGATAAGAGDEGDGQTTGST

GTP-binding nuclear protein Ran (Homo sapiens) (from UniProt P62826) Q69L
effect of a mutation on the interaction: increasing interaction

Reference: IntAct's records for PubMed 11932251
